The source of these data is the supplement of paper PMC9170038.

The test system of the data set is MS2 coat protein. The data set can be described thus: apparent KD of MS2 coat protein; designed switch direction (-1 OFF switch, 1 ON switch): 1; higher = weaker reporter binding. The procedure, abridged: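 The apparent KD reported per design is the median over clusters of curve fits to normalised cluster fluorescence. The RNA switches were transcribed on Illumina chips by stalled E. coli RNA polymerase. SNAP-549-labelled MS2 coat protein was titrated from 0.7 or 1.5 nM, doubling up to 3 µM, in Tris-HCl pH 7.5 buffer containing KCl, MgCl2, BSA, DTT, tRNA and Tween-20, with no input, 200 uM small-molecule ligand, or an oligonucleotide input.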

The mark [1] stands for this setting: Eterna round: R95, input ligand: FMN 200 uM.
[2] abbreviates: Eterna round: R95, input ligand: microRNA oligo, concentration not stated.
Setting [3] is: Eterna round: R95, input ligand: none.
Where [4] appears, read: input ligand: microRNA oligo, concentration not stated.

Turning to “AUUUAACAAGCUUUUUGCUCGUCUUAUAAACAUGAGGAUCACCCAUGUAAUAGCGUGAGAGUAAAUAUUUAAAUAAU [JMF 93] (puzzle: Sensor for hsa-mir-208a)”, the “apparent KD of MS2 coat protein” value by setting is: under setting [1], 0.0145 µM; under setting [2], 0.0483 µM; under setting [3], 0.0111 µM.
In the case of “GUGGUCAGACAUGAGGAUCACCCAUGUGGAAUAAAUAAGGUCAAGGAUAUUCAAUAUAGGAUAUAGAAGAAGGUGAGGUUGGUG (Eterna round: R96, puzzle: Same State NG 3)”, under setting [4], the “apparent KD of MS2 coat protein” value amounted to 0.108 µM.
Turning to “UGGCUCAGACGAGGAUAUAUGUGAUCACAUGAGGAUCACCCAUGUCUCGAGCUUCGGCUCGAGACAUAGAAGGUGUCUGAGCCU [SSNG2/3-C3] (Eterna round: R96, puzzle: Same State NG 2)”, the “apparent KD of MS2 coat protein” value worked out at 0.0539 µM (input ligand: FMN 200 uM), 0.0122 µM under setting [4] and 0.00664 µM (input ligand: none).
For “CUGACAUGUCAAGGAUAUCACGUCGAUUAGACGUGAGAAGGUGAUCUACACAUGAGGAUCACCCAUGUGUUACGUGGGAGUCAG [Brourd's SSNG1/1-A2 mod 19] (Eterna round: R96, puzzle: Same State NG 1)”, in that order: 0.0549 µM, 0.113 µM and 0.162 µM.
The matching figures for “UCGAGCGUACUUGCAGACAUGAGGAUCACCCAUGUAAAUGGGAAGGAUAUGGUACCGUUUCGGUACCAGAAGGUCCUACGUGCU [salish99_SSNG3_r04_305] (Eterna round: R96, puzzle: Same State NG 3)”: 0.325 µM, 0.0488 µM and 0.144 µM.
The matching figures for “GUACAUAUUAUAGGAUAUCACGUCGAAUAGACGUGAGAAGGAUAAUCCCACAUGAAUAUUAAUACAUGAGGAUCACCCAUGUAC [SSNG1/18-A1] (Eterna round: R96, puzzle: Same State NG 1)”: 0.042 µM, 0.0497 µM and 0.0492 µM.
Turning to “GCCGUAAUAACAUGAGGAUCACCCAUGUGCGCGAGAGUGGAUGAGGAUAUCGAUGGGUUUCCCGUCGAGAAGGCGUGGGUCGGC [JL SSNG3 3.98] (Eterna round: R96, puzzle: Same State NG 3)”, the “apparent KD of MS2 coat protein” value reads like this: (input ligand: FMN 200 uM) 0.028 µM; under setting [4], 0.0245 µM; (input ligand: none) 0.0385 µM.
Regarding “GUGGCCCAGGCACAGGAUAUGUUUCUCGUAACAUGAGGAUCACCCAUGUGCCUAUGAGAUAUAAUGCAGAAGGGUGCACGCCACG [Mat - Same State 2 - Mod of UCT - D80] (puzzle: Same State 2)”, the “apparent KD of MS2 coat protein” value reads like this: under setting [1], 0.0162 µM; under setting [2], 0.0682 µM; under setting [3], 0.0609 µM.
Turning to “GUAGCAUACCGAGGAUAUUCAUACAUGAGGAUCACCCAUGUUAUUAUAGGCCGAUUACGGCCUUGGGAGAAGGCGGAAUGCUAC [Xeonanis - 20 Mod28] (Eterna round: R96, puzzle: Same State NG 2)”, the “apparent KD of MS2 coat protein” value runs as follows: (input ligand: FMN 200 uM) 0.0131 µM; under setting [4], 0.0114 µM; (input ligand: none) 0.0161 µM.
As to “GCUUCACAUGAGGAUCACCCAUGUUUUCGGAGUCGAGGAUAUGGUCACUGUAAACAGUGGCCAGAAGGCGAGGAGC [SS1 - Son of Teenbexe v8] (puzzle: Same State 1)”, the “apparent KD of MS2 coat protein” value under setting [2] amounted to 0.017 µM.
As for “GGAGCCAAGGCAGGAUAUUCAUUAUAAAUUACAUGAGGAUCACCCAUGUUGGCCAGAAGGCCAUGGGAGAAGGGCCAUGGCUCG [Xeonanis - 13 mod25] (Eterna round: R96, puzzle: Same State NG 2)”, the “apparent KD of MS2 coat protein” value was 0.0397 µM (input ligand: FMN 200 uM), 0.28 µM under setting [4] and 0.322 µM (input ligand: none).
For “CCGAGUGGCGUACAGGAUAUGUUGCAUGGAACAUGAGGAUCACCCAUGUAUUUGCUCCCGCAUACGCAGAAGGGUGCGUCCUGGG [Arraquorso] (Eterna round: R96, puzzle: Same State 2)”, in that order: 0.025 µM, 0.0314 µM and 0.0469 µM.
The matching figures for “GCUCGAUGAUAGGCCUACAUGAGGAUCACCCAUGUAAGUGGGCAGGAUAUCUACAUGCAGAAUGUAGAGAAGGGCCCGUCGAGC [SameState NG3 #55] (Eterna round: R96, puzzle: Same State NG 3)”: 0.0205 µM, 0.066 µM and 0.0839 µM.
Consider “CGUCCGGCCUGUGCUGGCCGGAUGCAUGUACAUGAGGAUCACCCAUGUUCAUGUGCAGGCUUUUUGCUCGUCUUGUG [salish99_mir208a_r3_008] (puzzle: Sensor for hsa-mir-208a)”, for which the “apparent KD of MS2 coat protein” value runs as follows: under setting [1], 0.0192 µM; under setting [2], 0.0119 µM; under setting [3], 0.0231 µM.
Regarding “UUUGAAUUGCAAGGAUAUCUUAUUUAGAUUUUAAGAGAAGGUGCUUUACAGUUACAUGAGGAUCACCCAUGUCUUUCUUUUUAU [JR_SSNG1_Sub063] (Eterna round: R96, puzzle: Same State NG 1)”, the “apparent KD of MS2 coat protein” value under setting [4] turned out to be 0.0193 µM.
Take “AAACGCAGCAUAUCGCUGCGACAUGAGGAUCACCCAUGUACACAGGAUAUCGCGGCAUACCGCCACGAGAAGGGUGAUCAAGAC [Vebixeriso] (Eterna round: R96, puzzle: Same State NG 3)”: the “apparent KD of MS2 coat protein” value (input ligand: FMN 200 uM) worked out at 0.676 µM, the “apparent KD of MS2 coat protein” value under setting [4] came to 0.0829 µM and the “apparent KD of MS2 coat protein” value (input ligand: none) amounted to 0.0452 µM.
As for “AAUUGUUUCUGAGGAUAUCAGUAGUAUGCUUUUUGAGAAGGCAGUACAUGAGGAUCACCCAUGUUGUGGUUUGAUAGAAUGAUA [JR_SSNG1_Sub004] (Eterna round: R96, puzzle: Same State NG 1)”, under setting [4], the “apparent KD of MS2 coat protein” value worked out at 0.13 µM.
With “GAUAAACAUGAGGAUCACCCAUGUAAUAAUAUGGGAGGAUAUCAGAAUGUAUGUAUGUAAUGAGAAGGCCUAAUAG [Mat - Same State 1 - Mod of Eli - D72] (puzzle: Same State 1)”, the “apparent KD of MS2 coat protein” value runs as follows: under setting [1], 0.0767 µM; under setting [2], 0.229 µM; under setting [3], 0.391 µM.
For “AGUCCAGCCUGAGCUGGACAAAAGCAUGUACAUGAGGAUCACCCAUGUUCAUGUAUAAGCUUUUUGCUCGUCUUAAA [Zipper 52 - 11] (puzzle: Sensor for hsa-mir-208a)”, in that order: 0.0185 µM, 0.0102 µM and 0.0172 µM.
As to “AGCUAUUAAUCAGGAUAUAGGGACAUGAGGAUCACCCAUGUAUACAUGAUGAAAUGUGAUCACGUCUAGAAGGGAUUACUAACA [SameState NG2 #40] (Eterna round: R96, puzzle: Same State NG 2)”, the “apparent KD of MS2 coat protein” value (input ligand: FMN 200 uM) came out at 0.236 µM, the “apparent KD of MS2 coat protein” value under setting [4] worked out at 0.299 µM and the “apparent KD of MS2 coat protein” value (input ligand: none) was 0.134 µM.
For “UCGGGCGUACUUGCUGACAUGAGGAUCACCCAUGUCCUUGCGCAGGAUAUGGUUCCGUUUCGGUUCCAGAAGGUCCUGGCUGCU [salish99_SSNG3_r04_319] (Eterna round: R96, puzzle: Same State NG 3)”, in that order: 0.0305 µM, 0.0195 µM and 0.0332 µM.
